Test results reported in article PMC2797645, “Structure of the HCMV UL16-MICB Complex Elucidates Select Binding of a Viral Immunoevasin to Diverse NKG2D Ligands” (PLoS Pathogens, 2010).

T1: Fc-tagged ULBP2 (human, UniProt Q9BZM5 26-217)
T1 construct: ULBP2 (RAET1H), human NKG2D ligand; Captured by its Fc on a Protein A-G chip; also called RAET1H; source: bought: R&D Systems
T1 sequence: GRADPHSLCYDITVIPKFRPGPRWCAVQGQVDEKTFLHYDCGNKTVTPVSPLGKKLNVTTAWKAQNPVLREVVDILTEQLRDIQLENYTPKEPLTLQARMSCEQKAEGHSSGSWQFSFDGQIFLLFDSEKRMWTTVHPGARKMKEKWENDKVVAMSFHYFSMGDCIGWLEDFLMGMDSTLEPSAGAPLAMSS

T2: Fc-tagged ULBP1 (human, UniProt Q9BZM6 26-216)
T2 construct: ULBP1 (RAET1I), human NKG2D ligand; Captured by its Fc on a Protein A-G chip; also called RAET1I; source: bought: R&D Systems
T2 sequence: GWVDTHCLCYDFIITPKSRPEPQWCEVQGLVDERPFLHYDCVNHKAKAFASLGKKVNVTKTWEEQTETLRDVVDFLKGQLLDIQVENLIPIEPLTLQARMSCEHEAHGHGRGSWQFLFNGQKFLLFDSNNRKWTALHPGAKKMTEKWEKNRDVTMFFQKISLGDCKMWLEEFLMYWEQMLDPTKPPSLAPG

T3: MICB*02 ectodomain (domains α1, α2 and α3) (human, UniProt Q29980 23-298)
T3 construct: also called complete MICB ectodomain; MICBα1α3
T3 sequence: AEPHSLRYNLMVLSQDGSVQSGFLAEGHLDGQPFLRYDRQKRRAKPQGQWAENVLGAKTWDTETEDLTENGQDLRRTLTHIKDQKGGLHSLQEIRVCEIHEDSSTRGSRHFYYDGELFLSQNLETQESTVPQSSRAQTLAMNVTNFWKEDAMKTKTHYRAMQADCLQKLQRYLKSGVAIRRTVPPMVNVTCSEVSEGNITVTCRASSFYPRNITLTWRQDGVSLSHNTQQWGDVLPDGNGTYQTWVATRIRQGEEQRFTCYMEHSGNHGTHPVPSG

T4: MICB*02 α1α2-platform domain (MICBpf) (human)
T4 chain: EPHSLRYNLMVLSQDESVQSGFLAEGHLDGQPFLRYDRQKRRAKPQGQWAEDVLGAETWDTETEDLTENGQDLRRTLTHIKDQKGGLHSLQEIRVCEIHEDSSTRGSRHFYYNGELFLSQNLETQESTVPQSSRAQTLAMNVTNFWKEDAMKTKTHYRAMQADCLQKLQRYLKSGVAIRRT

T5: MICB*02 ectodomain (domains α1, α2 and α3) (human, UniProt Q29980 23-298)
T5 chain: T3 sequence

B1: UL16 ectodomain, monomeric, untagged (domain or fragment)
chain: VDLGSKSSNSTCRLNVTELASIHPGETWTLHGMCISICYYENVTEDEIIGVAFTWQHNESVVDLWLYQNDTVIRNFSDITTNILQDGLKMRTVPVTKLYTSRMVTNLTVGRYDCLRCENGTTKIIERLYVRLGSLYPRPPGSGLAKHPSVSADEELSA
modifications: N-linked glycans; N-acetylglucosamine seen at asparagines 35, 41, 68, 84, 95, 101 and 132 in the crystal (after EndoH)
notes: UL16 of human cytomegalovirus, ectodomain residues 27-184; the cDNA construct also held the N-terminal signal peptide (residues 1-26), then a thrombin cleavage site and human IgG1-Fc; Residues of the thrombin site may remain at the C-terminus after cleavage; For the crystal the complex was partly deglycosylated with EndoH after complex formation; for SPR the glycosylated protein was used; also …
B2: MICB*02 α1α2-platform domain (MICBpf) (domain or fragment)
chain: T4 chain

Columns and labels:
Fc-tagged ULBP2 = molecular target: T1, Fc-tagged ULBP2; assay: SPR; Fc-tagged ULBP ligands captured on a Protein A-G CM5 chip, diluted in HBS-EP pH 7.4 at 25°C; untagged monomeric UL16 as analyte, 50 µl/min; regeneration with 10 mM glycine pH 1.7; conditions: both partners purified
Fc-tagged ULBP1 = molecular target: T2, Fc-tagged ULBP1; assay: as above; conditions: both partners purified
[1] = molecular target: T3, MICB*02 ectodomain (domains α1, α2 and …); assay: SPR; MICBpf or MICB α1-α3 covalently immobilised on a CM5 chip by amine coupling; untagged monomeric UL16 as analyte, 50 µl/min; kinetic fit (1:1 binding with mass transfer) and equilibrium fit (1:1 Langmuir isotherm); chip not regenerated; conditions: both partners purified
[2] = molecular target: T4, MICB*02 α1α2-platform domain (MICBpf); assay: SPR; kinetic fit
[3] = molecular target: T5, MICB*02 ectodomain (domains α1, α2 and …); assay: SPR; kinetic fit
[4] = molecular target: B1; assay: SPR; MICBpf or MICB α1-α3 covalently immobilised on a CM5 chip by amine coupling; untagged monomeric UL16 as analyte, 50 µl/min; kinetic fit (1:1 binding with mass transfer) and equilibrium fit (1:1 Langmuir isotherm); chip not regenerated; conditions: both partners purified

Binder	binding result (Fc-tagged ULBP2)	Kd (Fc-tagged ULBP1) [nM]	Kd [1] [nM]	koff [2] [s⁻¹]	koff [3] [s⁻¹]	Kd [4] [nM]
B1	binds	12	67	0.054	0.045	–
B2	–	–	–	–	–	66
